Assay results as given in paper PMC2288894.

Columns and labels:
[1] = target: the class I heavy chains (H-2Kb, Db, Kd, and Ld; Fig. 9); assay: co-IP
[2] = target: the other three class I molecules (Bio-Gel A0.5m); assay: SEC
[3] = target: H-2Ld class I heavy chain (mouse (endogenous in MDAY-D2)); assay: cross-linking
[4] = target: H-2Kd class I heavy chain (mouse (endogenous in MDAY-D2)); assay: cross-linking
[5] = target: H-2Db class I heavy chain (mouse (endogenous in EL4)); assay: cross-linking
[6] = target: H-2Kb class I heavy chain (mouse (endogenous in EL4)); assay: cross-linking
H-2Kb class I heavy chain (mouse (endogenous in EL4)), sequence (P01901 22-369): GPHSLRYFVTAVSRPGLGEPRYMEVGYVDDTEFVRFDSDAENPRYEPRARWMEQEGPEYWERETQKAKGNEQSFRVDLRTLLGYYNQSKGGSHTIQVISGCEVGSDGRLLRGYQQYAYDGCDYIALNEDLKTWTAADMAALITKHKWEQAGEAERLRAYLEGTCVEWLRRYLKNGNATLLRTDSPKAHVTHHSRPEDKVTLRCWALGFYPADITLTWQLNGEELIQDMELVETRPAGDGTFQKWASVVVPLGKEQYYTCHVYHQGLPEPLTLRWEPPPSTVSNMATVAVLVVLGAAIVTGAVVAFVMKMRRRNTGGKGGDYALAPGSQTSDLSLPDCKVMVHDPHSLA

H-2Db class I heavy chain (mouse (endogenous in EL4)), sequence (P01899 25-362): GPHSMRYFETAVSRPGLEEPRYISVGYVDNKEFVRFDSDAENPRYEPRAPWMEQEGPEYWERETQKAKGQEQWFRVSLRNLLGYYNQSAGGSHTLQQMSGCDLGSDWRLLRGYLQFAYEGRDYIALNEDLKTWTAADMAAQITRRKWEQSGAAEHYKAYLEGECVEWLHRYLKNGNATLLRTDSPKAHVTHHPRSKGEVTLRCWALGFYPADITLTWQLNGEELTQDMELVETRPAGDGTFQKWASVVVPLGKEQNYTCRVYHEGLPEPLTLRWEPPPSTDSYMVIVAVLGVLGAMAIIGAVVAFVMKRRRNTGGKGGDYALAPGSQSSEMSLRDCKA
H-2Ld class I heavy chain (mouse (endogenous in MDAY-D2)), sequence (P01897 25-362): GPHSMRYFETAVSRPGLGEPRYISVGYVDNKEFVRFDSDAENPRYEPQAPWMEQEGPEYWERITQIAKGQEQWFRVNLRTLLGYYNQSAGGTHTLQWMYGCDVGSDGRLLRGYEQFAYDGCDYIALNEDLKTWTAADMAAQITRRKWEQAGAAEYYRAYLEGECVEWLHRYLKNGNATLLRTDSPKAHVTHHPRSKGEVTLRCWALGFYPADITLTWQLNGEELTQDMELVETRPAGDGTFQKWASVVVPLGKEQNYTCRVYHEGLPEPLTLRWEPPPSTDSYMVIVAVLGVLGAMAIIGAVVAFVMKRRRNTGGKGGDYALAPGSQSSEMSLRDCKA
H-2Kd class I heavy chain (mouse (endogenous in MDAY-D2)), sequence (P01902 22-368): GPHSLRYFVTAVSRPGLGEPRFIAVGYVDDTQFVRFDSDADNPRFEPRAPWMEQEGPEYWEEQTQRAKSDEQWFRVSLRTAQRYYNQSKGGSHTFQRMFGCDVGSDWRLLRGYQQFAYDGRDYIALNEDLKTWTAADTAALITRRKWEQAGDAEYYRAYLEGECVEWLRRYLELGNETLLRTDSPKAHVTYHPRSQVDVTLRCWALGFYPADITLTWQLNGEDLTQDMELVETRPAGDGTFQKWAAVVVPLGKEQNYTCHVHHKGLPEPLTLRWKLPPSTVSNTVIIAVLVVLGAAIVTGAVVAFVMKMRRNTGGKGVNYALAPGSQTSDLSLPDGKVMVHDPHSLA

Molecule	half-time of association post pulse (in cells) [1]	percent of heavy chains in the oligomeric species in the pulse-labeled sample [2]	half-time of disappearance of the complex after the pulse (in cells) [3]	half-time of disappearance of the complex after the pulse (in cells) [4]	half-time of disappearance of the complex after the pulse (in cells) [5]	half-time of p88 dissociation in the presence of BFA (in cells) [5]	half-time of disappearance of the complex after the pulse (in cells) [6]	half-time of p88 dissociation in the presence of BFA (in cells) [6]
beta 2-microglobulin (from UniProt P01887 21-119) (natural protein)	2 to 5 min	–	–	–	–	–	–	–
p88 (novel 88-kD protein) (natural protein) HDGHDDDAIDIEDDLDDVIEEVEDSKSKSDASTPPSPKVTYKAPVPTGEVYFADSFDRGSLSGWILSKAKKDDTDDEIAKYDGKWEVDEMKETKLPGDKGLVLMSRAKHHAISAKLNKPFLFDTKPLIVQYEVNFQNGIECGGAYVKLLSKTAELSLDQFHDKTPYTIMFGPDKCGEDYKLHFIFRHKNPKTGVYEEKHAKRPDADLKTYFTDKKTHLYTLILNPDNSFEILVDQSVVNSGNLLNDMTPPVNPSREIEDPEDRKPEDWDERPKIADPDAVKPDDWDEDAPSKIPDEEATKPEGWLDDEPEYIPDPDAEKPEDWDEDMDGEWEAPQIANPKCESAPGCGVWQRPMIDNPNYKGKWKPPMIDNPNYQGIWKPRKIPNPDFFEDLEPFKMTPFSAIGLELWSMTSDIFFDNFIISGDRRVVDDWANDGWGLKKAADGAAEPGVVLQMLEAAEERPWLWVVYILTVALPVFLVILFCCSGKKQSNAMEYKKTDAPQPDVKDEEGKEEEKNKRDEEEEEEKLEEKQKSDAEEDGVTGSQDEEDSKPKAEEDEILNRSPRNRKPRRE	–	20 to 60%	45 min	38 min	45 min	42 min	20 min	23 min
